From patent US9969998B2, “Compositions of adenosine deaminase-2 (ADA2), variants thereof and methods of using same” (Halozyme, Inc., priority 2014, dated 2018)
Residue numbers refer to the chain shown, from its start. Names and notes keep the numbering of the source. Values joined by “and” are separate entries in the source; they are usually repeats but may differ in a detail not shown here. Equal values may be shown once. “Also recorded” adds a separate entry of the source.

Legend:
[1] = test system: CT26 murine primary colon carcinoma; assay: CT26 syngeneic tumor model; design: species or system BALB/c mice; details: mouse
Method: Exemplary of an animal tumor model that can be used to assess the effect of cancer treatment using ADA2 provided herein is the CT26 syngeneic tumor model. This model is created by subcutaneous injection of CT26 murine primary colon carcinoma (ATCC CRL-2638) cells into syngeneic BALB/c mice. The mice are staged until the tumor is established, then the agent used for treatment, such as any ADA2 provided herein or combination therapy including ADA2 treatment, are administered. Another example of an animal tumor model of pancreatic cancer involves the generation of tumors in animals using BxPC-3 pancreatic adenocarcinoma cells (see e.g. Von Hoff et al. (2011) J. Clin. Oncol., 29:4548-54). […]
In other examples, tumor volume can be measured using an average of measurements of tumor diameter (D) obtained by caliper or ultrasound assessments. For example, tumor volume can be determined using VisualSonics Vevo 770 high-resolution ultrasound or other similar ultrasound. The volume can be determined from the formula V=D^3×π/6 (for diameter measured using calipers) or V=D^2×d×π/6 (for diameter measured using ultrasound where d is the depth or thickness). For example, caliper measurements can be made of the tumor length (l) and width (w) and tumor volume calculated as length×width^2×0.52. […] Tumor volumes can be determined by using available software (e.g., Amira 3.1 software; Mercury Computer Systems). […]

[2] = test system: KLN205 murine lung cancer tumor; assay: Tumor growth inhibition of combination therapy with anti-PD-1, KLN205 syngeneic tumor model; assay type: in vivo, DBA/2 mice; details: study day 14, PEG-K374D 0.3 mg/kg IV biweekly, α-PD-1 2 mg/kg IP biweekly
Method: KLN205 syngeneic tumor models were produced by injecting thirty-two (32) DBA/2 mice with 5×10^5 KLN205 murine lung cancer tumor cells (ATCC CRL-1453), in 0.1 mL injection volume per animal, subcutaneously. Tumor bearing mice were staged into treatment groups when the average tumor size reached approximately 100 mm^3.
For treatment, animals were randomized into 4 groups (n=8/group): 1) saline vehicle control, 2) PEG-K374D, 3) α-PD-1 antibody (Clone RMP1-14, Cat. No. BE0146; BioXCell, West Lebanon, N.H.), or 4) PEG-K374D+α-PD-1. PEG-K374D was dosed intravenously biweekly at 0.3 mg/kg, and α-PD-1 was dosed intraperitoneally biweekly at 2 mg/kg). The sequence of dosing in the combination group was PEG-K374D immediately followed by α-PD-1.
where “Tn” is the average tumor volume for the treatment group at day “n” after the final dose of PEG-K374D and α-PD-1 or control; “T0” is the average tumor volume in that treatment group at day 0, before treatment; “Cn” is the average tumor volume for the corresponding control group at day “n”; and “C0” is the average tumor volume in the control group at day 0, before treatment.

[3] = test system: adenosine in tumor extracellular matrix; assay: Adenosine in MH194+PSC4 tumor extracellular matrix (microdialysis, LC/MS); assay type: in vivo, mice; details: for Adenosine concentration in ECM, Mean: n = 8; for Adenosine concentration in ECM, individual tumors: single animal values; for adenosine concentration in tumor ECM: 0.03 mg/kg
Method: To assess the effects of PEGADA2 on adenosine in tumor extracellular matrix, mice bearing peritibial MH194+PSC4 tumors received vehicle, the polypeptide whose sequence is set forth in SEQ ID NO:20, which contains the amino acid replacement K374D (Zavialov numbering; K371D mature numbering), at 0.03 mg/kg, or the polypeptide whose sequence is set forth in SEQ ID NO: 273, which contains the amino acid replacements R222Q/S265N (Zavialov numbering; R219Q/S262 mature numbering), at 0.03 mg/kg, 24 or 48 hours prior to microdialysis. Each of the polypeptides were PEGylated as described above in Examples 8 and 22). The mice were anesthetized using isofluorane, and a heating pad was used to maintain body temperature. A small incision was made on the tumor. A microdialysis probe with 55,000 Da molecular weight cut-off (CMA, Stockholm, Sweden) was inserted into the tumor, via a guided cannula. The length of the microdialysis probe used in this study was 10 mm. Once the probe was in position, the cannula was withdrawn leaving the probe completely embedded in the tumor tissue. Dulbecco's phosphate buffered saline (DPBS; Thermo Fisher Scientific) with ADA inhibitors (Pentostatin and 5-iodotubercindin) was perfused through the probe at a flow rate of 1 μl/min for 30 minutes. Then the samples were collected at a flow rate of 0.5 μl/min for 60 minutes. Microdialysis perfusates were analyzed by Liquid chromatography-mass spectrometry (LC/MS) at MicroConstants (9050 Camino Santa Fe, San Diego, Calif. 92121).

B1: ADA2: wild-type human adenosine deaminase 2, mature form SEQ ID NO:5, homodimer (protein, listed as Homo sapiens)
chain: IDETRAHLLLKEKMMRLGGRLVLNTKEELANERLMTLKIAEMKEAMRTLIFPPSMHFFQAKHLIERSQVFNILRMMPKGAALHLHDIGIVTMDWLVRNVTYRPHCHICFTPRGIMQFRFAHPTPRPSEKCSKWILLEDYRKRVQNVTEFDDSLLRNFTLVTQHPEVIYTNQNVVWSKFETIFFTISGLIHYAPVFRDYVFRSMQEFYEDNVLYMEIRARLLPVYELSGEHHDEEWSVKTYQEVAQKFVETHPEFIGIKIIYSDHRSKDVAVIAESIRMAMGLRIKFPTVVAGFDLVGHEDTGHSLHDYKEALMIPAKDGVKLPYFFHAGETDWQGTSIDRNILDALMLNTTRIGHGFALSKHPAVRTYSWKKDIPIEVCPISNQVLKLVSDLRNHPVATLMATGHPMVISSDDPAMFGAKGLSYDFYEVFMGIGGMKADLRTLKQLAMNSIKYSTLLESEKNTFMEIWKKRWDKFIADVATK
modifications: ADA2 mature protein
Q: With B1 as the molecule, how does the “tumor growth in vivo” value [1] read?
A: Its value is “reduce tumor growth”.

B2: PEG-K374D: rHuADA2-K374D (SEQ ID NO:20) PEGylated on surface exposed lysines with linear PEG-20K (conjugate)
chain: B1 chain with K371D
modifications: linear PEG-20K on surface lysines; human ADA2 K371D, mature numbering
Q: B2 was tested. Which “Average Tumor Volume” value [2] did it give?
A: Its value is 264.56 mm^3.

Q: And the “Tumor Growth Inhibition” value [2]?
A: Its value is “inhibited tumor growth; also recorded: greater tumor growth inhibition than either α-PD-1 treatment alone or the PEG-K374D+α-PD-1 combination therapy”.

Q: What about the “Tumor Growth Inhibition” value ([2]; vs vehicle) of the same molecule?
A: Its value is 78%.

B3: K374D: ADA2 variant SEQ ID NO:20 (protein)
chain: B1 chain with K371D
modifications: human ADA2 K371D, mature numbering
Q: With B3 as the molecule, how does the “Adenosine concentration in ECM, Mean” value ([3]; 24 hours after 0.03 mg/kg) read?
A: The value was 19.54 µM.

Q: And the “Adenosine concentration in ECM, individual tumors” value ([3]; 24 hours after 0.03 mg/kg)?
A: Its value is 49.02 µM and 12.72 µM and 29.64 µM and 13.58 µM and 12.54 µM and 7.48 µM and 2.04 µM and 29.30 µM.

Q: What about the “adenosine concentration in tumor ECM” value ([3]; 24 hours post treatment) of the same molecule?
A: The value was 19.5 µM.

Q: And the “Adenosine concentration in ECM, Mean” value ([3]; 48 hours after 0.03 mg/kg)?
A: The value was 11.06 µM.

Q: And the “Adenosine concentration in ECM, individual tumors” value ([3]; 48 hours after 0.03 mg/kg)?
A: Its value is 23.13 µM and 0.07 µM and 6.47 µM and 2.77 µM and 20.92 µM and 1.64 µM and 27.54 µM and 5.95 µM.

Q: What about the “adenosine concentration in tumor ECM” value ([3]; 48 hours post treatment) of the same molecule?
A: The value was 11 µM.
